According to patent US9063157B2, “Method for evaluating skin condition using squamous cell carcinoma antigen as marker” (Shiseido Company, Ltd., priority 2005, dated 2015):
Entries after “also recorded” stand apart in the source; their conditions may differ. Read-outs that look alike come from different tables or passages of the source. * marks the point of attachment. Cbz = O=C(OCc1ccccc1)*; CH2F = FC*

T1: purified caspase-14 (Homo sapiens, UniProt P31944)
T1 construct: human caspase-14 was purified as a heterodimer comprising a large subunit (17 KDa) and a small subunit (11 KDa); from tissue; host or cells: human heel stratum corneum (cornified cells)
T1 sequence (P31944 6-146 limits assumed): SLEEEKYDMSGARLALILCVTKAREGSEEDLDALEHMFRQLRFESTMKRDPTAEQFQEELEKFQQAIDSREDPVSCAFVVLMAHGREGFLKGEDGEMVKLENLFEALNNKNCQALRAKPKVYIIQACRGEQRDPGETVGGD
T1 sequence (P31944 153-242 limits assumed): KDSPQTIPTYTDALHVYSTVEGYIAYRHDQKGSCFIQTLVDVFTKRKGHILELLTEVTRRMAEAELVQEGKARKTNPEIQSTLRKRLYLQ

T2: caspase-14 (Homo sapiens, UniProt P31944)
T2 construct: human caspase-14 was purified as a heterodimer comprising a large subunit (17 KDa) and a small subunit (11 KDa); from tissue; host or cells: human heel stratum corneum (cornified cells)
T2 sequence (P31944 6-146 limits assumed): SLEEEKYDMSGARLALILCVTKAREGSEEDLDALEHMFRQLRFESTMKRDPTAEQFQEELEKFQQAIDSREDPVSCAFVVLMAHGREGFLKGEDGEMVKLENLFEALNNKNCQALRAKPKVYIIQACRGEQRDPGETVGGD
T2 sequence (P31944 153-242 limits assumed): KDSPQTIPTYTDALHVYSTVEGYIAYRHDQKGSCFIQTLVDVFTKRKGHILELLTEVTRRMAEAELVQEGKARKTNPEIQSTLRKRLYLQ

T3: caspase-3 (Homo sapiens, UniProt P42574)
T3 construct: When recombinant active caspases were incubated together with SCCA-1; purchased BIOMOL Research Labs, Inc. (Plymouth Meeting, PA)
T3 sequence (P42574 29-175 limits assumed): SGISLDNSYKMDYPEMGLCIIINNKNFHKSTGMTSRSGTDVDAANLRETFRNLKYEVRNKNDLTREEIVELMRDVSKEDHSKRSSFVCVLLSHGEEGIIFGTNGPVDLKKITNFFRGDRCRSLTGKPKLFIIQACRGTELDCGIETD
T3 sequence (P42574 176-277 limits assumed): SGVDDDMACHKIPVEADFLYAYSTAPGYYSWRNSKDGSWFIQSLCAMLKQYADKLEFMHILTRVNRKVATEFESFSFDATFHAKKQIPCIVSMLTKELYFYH


Tests used:
[1] = system: skin equivalent models; details: skin equivalent models (Weil et al., 1999); cited from earlier work
[2] = target: T1, purified caspase-14; assay: Caspase-14 activity inhibitor assay with WEHD-MCA substrate; type: biochemical
Procedure: Currently, 15 types of human caspases are known, but caspase-14 was incubated together with various peptide inhibitors for caspases (YVAD (SEQ ID NO:3), VDVAD (SEQ ID NO:4), DEVD (SEQ ID NO:5), VEID (SEQ ID NO:6), IETD (SEQ ID NO:7), LEHD (SEQ ID NO:8), DNLD (SEQ ID NO:9)), class-specific inhibitors for cysteine proteinases (IAA) or serine proteinases (AEBSF). WEHD-MCA (SEQ ID NO:10) was used as substrate in the presence of 1.3 M sodium citrate and 5 mM DTT, and the residual enzyme activity was measured. The tested enzyme concentrations were 5, 2.5 and 1.25 μM. The values were represented as mean values for multiple assays.
Caspase-14 activity was assayed by the method described in Mikolajczyk J. et al., Biochemistry 43, 10560-9 (2004), with some modifications, using Ac-WEHD-MCA as substrate. Briefly, an assay mixture was prepared from 45 μL of 0.1 M HEPES buffering solution (pH 7.5), 0.06 M NaCl, 0.01% CHAPS, 5 mM DTT, 1.3 M sodium citrate and 10 μM WEHD-MCA (all final concentrations). After adding enzyme sample (5 μl) to the mixture, it was incubated for 10-30 minutes. The reaction was suspended by addition of 150 μl of 0.1 M monochloroacetic acid, and Fluoroskan Ascent FL (Thermo Electron Co., Wolsam, Mass.) was used for measurement with a 355 nm excitation wavelength and a 460 nm luminous wavelength. For the inhibitor assay, caspase-14 and peptide inhibitor were incubated at room temperature for 15 minutes in assay buffer, and 5 μl of 100 μM WEHD-MCA was added to start the assay.
Human cornified cells (about 14 g) scraped from healthy human heel were extracted with 0.1 M Tris-HC1 (pH 8.0) containing 0.14 M NaCI, using a glass homogenizer. After centrifuging at 15,000g for 60 minutes, the supernatant was collected. It was concentrated with Amicon Ultra (Millipore, MA) and desalted with a Fast Desalting Column HR10/10 (Amersham Biosciences), and then the crude product was coated onto a HiPrep 16/10 Q XL column. The column was cleaned with 20 mM Tris-HCI (pH 8.0) and eluted with a 0-1 M linear NaCl gradient. The fraction was tracked by Western blotting using caspase-14antibody (H-99) (Santa Cruz Biotechnology, CA) and h14D^146 antibody. Each fraction was subjected to assay of hydrolytic activity on Ac Trp-Glu-His-Asp-methyl-coumarinamide (WEND-MCA) (Peptide Institute, Inc., Osaka, Japan). The positive fraction was applied to a Mono Q column equilibrated with the same buffering solution, and eluted with a NaCl gradient of up to 1M. The caspase-14 fraction was further separated by Mono S positive cation exchange chromatography. The column was equilibrated with 20mM acetic acid buffer (pH 4.5) and eluted with a 0-1 M NaCl gradient. The positive fraction was concentrated and applied to a chromatofocusing Mono P column equilibrated with 25 mM ethanolamine (pH 8.3). Next, elution was performed while forming a pH gradient from pH 8 to 5 using 46ml of Polybuffer (pH 5.0). Caspase-14 was subjected to final purification using Superdex 75 gel chromatography. The protein concentration was determined using a BioRad Protein Assay Kit (BioRad Lab, Hercules, CA).

[3] = target: T2, caspase-14; assay: ICAD cleavage by purified caspase-14, Western blotting; type: biochemical; details: for inhibition of ICAD decomposition by caspase-14: prolonged incubation (up to 16 hours), kosmotropic salt
Excerpt: Identified were 33 KDa and 27 KDa cleavage products. […] ICAD decomposition was observed only in the presence of a kosmotropic salt.
For Western blotting and immunohistochemical analysis of ICAD, anti-ICAD IgG (FL331, Santa Cruz Biotechnology) and DFF45/ICAD Ab-2 (NeoMarkers, Fremont, Calif.) were used.
The protein was separated by SDS-polyacrylamide gel electrophoresis with a 5-20% gradient gel. After electrophoresis, the protein was transferred onto a polyvinylidene difluoride membrane (Immobilon-P, Millipore, Bedford, Mass.) and incubated together with anti-caspase-14 antibody including H-99, h14D^146 or C20. Peroxidase-labeled anti-rabbit IgG (Sigma) or anti-goat IgG was used as secondary antibody and ECL-Plus (Amersham) was used as immunoreactive protein for visualization by chemiluminescence.
The present inventors tested the effect of caspase-14 on ICAD, in the course of searching for natural substrates of caspase-14, because disappearance of nuclei is a very important event for final differentiation.

[4] = target: T3, caspase-3; assay: Caspase-3 activity with synthetic substrate DEVD-MCA or natural substrate ICAD; type: biochemical
Excerpt: The enzymatic properties of purified caspase-14 were highly unique. Purified caspase-14exhibited relatively wide inhibitor sensitivity with respect to known caspase inhibitors. […] It was shown, for the first time, that SCCA-1 is an endogenous inhibitor of caspase-14. The property most specific to SCCA-1 is its high specificity for caspase-14. The other members, caspases 1-10, had never been reported as being affected by SCCA-1. […] This behavior is in contrast to Crm A. […] is also known to suppress several caspases including caspase-1 and caspase-8 (Gagliardini V. et al., Science 263: 826-8 (1994)). XIAP is known to inhibit caspase-3, -7, and -9 (Srinivasula S.M. et al., Nature 410: 112-6 (2001)). Since the anti-apoptotic protein p35 inhibits caspase-1, -3, -6, -7, -8, and -10, it is believed to have a wider spectrum.

[5] = system: caspases 1-10; assay: Recombinant active caspases incubated with SCCA-1; type: biochemical
Excerpt: Benzyloxycarbonyl (Z)-YVAD-FMK, Z-YVAD-FMK, Z VDVAD-FMK, Z-DEVD-FMK, Z-VEID-FMK, Z-IETD-FMK, Z-LEHD-FMK, and Z-VAD-FMK were purchased from BioVision (Mountain View, CA). Recombinant caspases 1-10 were obtained from BIOMOL Research Labs, Inc. (Plymouth Meeting, PA).
Although SCCA-1 belongs to the serpin superfamily, it inhibits cysteine proteinases such as papain and cathepsin L (Takeda A. et al., Biol. Chem. 383, 1231-6 (2002)). […] Kosmotropic conditions were used for caspase-14. […] The enzyme activity was not recovered even with extended incubation.

[6] = WEHD-MCA substrate, 1.3 M sodium citrate, 5 mM DTT, tested concentrations 5, 2.5 and 1.25 μM

Row | inhibiting effect against caspase-14 activity (residual enzyme activity) [2, 6] | Molecule | other results
1 | exhibited sensitivity | LEHD-FMK: caspase-9 inhibitor (Cbz-LEHD-CH2F; SMILES CC(C)C[C@H](NC(=O)OCc1ccccc1)C(=O)N[C@@H](CCC(=O)O)C(=O)N[C@@H](Cc1c[nH]cn1)C(=O)N[C@@H](CC(=O)O)C(=O)CF) | 
2 | exhibited sensitivity | VDVAD-FMK: caspase-2 inhibitor (Cbz-VDVAD-CH2F; SMILES CC(C)[C@H](NC(=O)OCc1ccccc1)C(=O)N[C@@H](CC(=O)O)C(=O)N[C@H](C(=O)N[C@@H](C)C(=O)N[C@@H](CC(=O)O)C(=O)CF)C(C)C) | 
3 |  | O=C(O)CI [IAA, iodoacetic acid] | inhibiting effect against caspase-14 activity (residual enzyme activity) [2]: no significant inhibiting effect
4 | exhibited sensitivity | IETD-FMK: caspase-8 inhibitor (Cbz-IETD-CH2F; SMILES CC[C@H](C)[C@H](NC(=O)OCc1ccccc1)C(=O)N[C@@H](CCC(=O)O)C(=O)N[C@H](C(=O)N[C@@H](CC(=O)O)C(=O)CF)[C@@H](C)O) | 
5 | exhibited sensitivity | DEVD-FMK: caspase-3 inhibitor | 
6 | virtually no effect | VEID-FMK: peptide inhibitor for caspases (Cbz-VEID-CH2F; SMILES CC[C@H](C)[C@H](NC(=O)[C@H](CCC(=O)O)NC(=O)[C@@H](NC(=O)OCc1ccccc1)C(C)C)C(=O)N[C@@H](CC(=O)O)C(=O)CF) | 

Row | Molecule | inhibiting effect against caspase-14 activity (residual enzyme activity) [2, 6] | other results
7 | VAD-FMK: pan-caspase inhibitor (Cbz-Val-Ala-Asp-CH2F) | inhibited caspase-14 activity at about the same level as VAD-FMK; also recorded: one of the most powerful caspase-14 inhibitors | inhibition of disappearance of nuclei [1]: inhibited disappearance of nuclei
8 | Benzyloxycarbonyl (Z)-YVAD-FMK | most powerful inhibiting effect; also recorded: strongest inhibition | 
9 | NCCc1ccc(S(=O)(=O)F)cc1 [AEBSF, 4-(2-aminoethyl)benzenesulfonyl fluoride] | no significant inhibiting effect | 
10 | SCCA-1: recombinant squamous cell carcinoma antigen 1, an ov-serpin family papain-like cysteine protease inhibitor (protein) MNSLSEANTKFMFDLFQQFRKSKENNIFYSPISITSALGMVLLGAKDNTAQQIKKVLHFDQVTENTTGKAATYHVDRSGNVHHQFQKLLTEFNKSTDAYELKIANKLFGEKTYLFLQEYLDAIKKFYQTSVESVDFANAPEESRKKINSWVESQTNEKIKNLIPEGNIGSNTTLVLVNAIYFKGQWEKKFNKEDTKEEKFWPNKNTYKSIQMMRQYTSFHFASLEDVQAKVLEIPYKGKDLSMIVLLPNEIDGLQKLEEKLTAEKLMEWTSLQNMRETRVDLHLPRFKVEESYDLKDTLRTMGMVDIFNGDADLSGMTGSRGLVLSGVLHKAFVEVTEEGAEAAAATAVVGFGSSPTSTNEEFHCNHPFLFFIRQNKTNSILFYGRFSSP | inhibited caspase-14 activity against WEHD-MCA in a dose-dependent manner | inhibition of ICAD cleavage by caspase-14 ([3]; 10 μM SCCA-1, in presence of kosmotropic salt): completely inhibited; inhibition of ICAD decomposition by caspase-14 [3]: inhibition of ICAD decomposition; inhibition of ICAD decomposition by caspase-14 ([3]; listed as SCCA 1): inhibited ICAD decomposition by caspase-14; inhibition of caspase-3 activity ([4]; natural substrate ICAD): did not inhibit; inhibition of caspase-3 activity ([4]; synthetic substrate DEVD-MCA): did not inhibit; effect on enzyme activity of caspases 1-10 [5]: none of the caspase members (1-10) were affected in their enzyme activity
